In the supplement of paper PMC12855868:

B1: library; numbered along this chain (parent)
chain: MAAAGGARLLRAASAVLGGPAGRWLHHAGSRAGSSGLLRNRGPGGSAEASRSLSVSARARSSSEDKITVHFINRDGETLTTKGKVGDSLLDVVVENNLDIDGFGACEGTLACSTCHLIFEDHIYEKLDAITDEENDMLDLAYGLTDRSRLGCQICLTKSMDNMTVRVPETVADARQSIDVGKTS

Variants of: B1
Assay: scaled log2 fold change in cell abundance, elesclomol vs control (0 = silent mean, 1 = nonsense mean) (scaled log2 ratio); higher = higher viability under elesclomol (loss of FDX1 cuproptosis function)
Conditions: glucose 10 mM
Protocol: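 Deep mutational scan of full-length human FDX1: a pooled saturation-mutagenesis ORF library (every residue 2-184 mutated to all 19 amino acids plus stop, and silent codons where available) was expressed by lentivirus in FDX1-knockout ABC1 (14 days) or HEK293T (11 days) cells grown with elesclomol (ES) or DMSO control. Variant abundance came from ORF sequencing. The log2 fold change (ES vs control, mean of duplicates) was centred on the silent-variant mean (0) and scaled to the nonsense-variant mean (1). Higher values mean greater viability under ES, i.e. loss of FDX1 function in cuproptosis.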

[1] = with ABC1 FDX1 KO, elesclomol 5 nM, 14 days
[2] = with HEK293T FDX1 KO, elesclomol 40 nM, 11 days
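Also: variant abundance is its share of total variant reads in each endpoint sample, from next-generation sequencing of the integrated ORF PCR-amplified out of genomic DNA.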

Variant	scaled log2 fold change [1]	scaled log2 fold change [2]
G29D	0.238	–
G29R	-0.244	-0.0867
G29E	0.324	0.361
G29I	0.147	-1.13
G29F	-0.118	-0.149
G29S	0.00542	-0.441
G29K	-0.417	1.26
G29T	-0.284	-0.357
G29Y	-0.628	–
G29V	-0.87	–
G29C	0.0521	-0.731
G29M	-0.124	-0.568
G29W	0.42	0.76
G29P	-0.415	-0.6
H26W	0.101	-0.281
H26M	0.23	–
H26L	0.346	0.304
H26S	0.241	–
H26R	-0.169	-0.571
H26P	-0.00391	–
H26G	-0.196	-0.699
H26Y	0.147	-0.00505
H26K	0.352	–
H26D	0.267	0.193

Variant	scaled log2 fold change [1]	scaled log2 fold change [2]
H26E	0.356	0.955
H26C	-0.0138	–
H26F	0.206	-0.237
H26N	0.169	-0.198
H26Q	0.0786	1.39
H26T	0.206	0.037
S35A	-0.0215	0.327
S35F	-0.398	0.53
S35N	0.181	-0.653
S35G	-0.212	-1.33
S35M	0.309	0.0177
S35Y	-0.531	-0.958
S35R	-0.768	-0.669
S35Q	0.169	0.0163
S35L	-0.141	-0.673
S35V	0.123	-0.55
S35P	-0.144	–
S35D	0.267	1.13
S35K	0.175	0.17
S35T	-0.263	0.526
S35I	0.293	0.132
S35E	-0.0617	-0.644
S35C	0.0457	0.128
S35H	-0.513	1.67

Variant	scaled log2 fold change [1]	scaled log2 fold change [2]
S35W	-0.0127	-0.259
G36R	-0.252	0.0429
G36M	0.149	-0.00494
G36C	-0.121	0.501
G36K	-0.118	-0.253
G36S	0.168	-0.0207
G36V	-0.491	-0.262
G36Y	0.0493	-0.0699
G36F	-0.16	-0.239
G36N	0.0293	0.187
G36I	0.0053	-0.456
G36L	0.19	0.873
G36H	0.443	-1.19
G36Q	-0.138	0.311
G36T	0.266	0.704
G36D	-0.0689	0.737
G36W	-0.615	1.33
G36E	0.292	0.257
A32G	0.242	-0.0456
A32R	0.589	1.44
A32C	-0.309	-1.08
A32T	-0.266	–
A32V	-0.114	–
A32W	-0.684	–

Variant	scaled log2 fold change [1]	scaled log2 fold change [2]
A32Y	0.0969	0.822
A32F	0.304	0.033
A32H	-0.58	-0.0637
A32E	0.295	-0.00588
A32D	0.119	–
A32I	0.101	0.722
A32N	-0.064	-0.0431
A32P	0.626	–
A32Q	0.0849	-0.338
A32S	0.0206	-0.496
R39G	0.577	0.061
R39P	-0.972	-0.296
R39H	0.0443	-0.509
R39T	-0.117	0.0293
R39V	0.374	-0.208
R39D	-0.217	1.07
R39Q	-0.432	0.178
R39S	0.489	0.0758
R39C	-0.483	0.689
R39L	-0.142	-0.141
R39F	0.0891	-0.0588
R39E	-0.217	0.936
R39M	0.188	0.344
R39A	0.0642	-0.565

Variant	scaled log2 fold change [1]	scaled log2 fold change [2]
R39K	-0.687	-0.451
R39I	-0.111	0.989
R39N	-0.39	-0.278
R39W	0.0801	0.13
L37K	0.0656	-0.805
L37S	0.557	-0.131
L37R	-0.0271	0.0954
L37M	0.0458	0.0807
L37Q	-0.0502	-0.659
L37H	-0.125	-0.331
L37P	0.51	1.09
L37T	0.382	0.567
L37E	-0.0101	-0.121
L37Y	0.353	0.0859
L37V	0.412	–
L37F	0.0336	0.00175
L37G	0.613	-0.248
L37W	0.235	-0.0987
L37C	-0.0306	–
L37D	-0.0765	-0.369
G33N	0.0785	0.48
G33M	0.0509	-0.453
G33W	-0.0437	0.197
G33I	0.161	0.713
